From patent US20150272885A1 (STC UNM, published 2015)
No end group written: not given here.

What was measured:
ephrin B2 (EB2) on cells [1] = target: T1, ephrin B2 (EB2) on cells (human, UniProt P52799 28-333); assay: phage display selection on CHO-K1 cells expressing human EB2, with counter-selection on parental CHO-K1 and on CHO-K1 expressing ephrin B1
T1 construct: whole, on cells; The species is stated as human for the CHO-K1 transfectants; also called human ephrin B2

[2] = target: T2, recombinant human Met (rhMet), fused to the Fc domain of human IgG (human, UniProt P08581 25-932); assay: phage display selection on rhMet-Fc, five rounds; phage ELISA on rhMet
T2 construct: also called MET receptor; hepatocyte growth factor receptor; not shown: Fc domain of human IgG
T2 sequence (P08581 25-932 limits assumed): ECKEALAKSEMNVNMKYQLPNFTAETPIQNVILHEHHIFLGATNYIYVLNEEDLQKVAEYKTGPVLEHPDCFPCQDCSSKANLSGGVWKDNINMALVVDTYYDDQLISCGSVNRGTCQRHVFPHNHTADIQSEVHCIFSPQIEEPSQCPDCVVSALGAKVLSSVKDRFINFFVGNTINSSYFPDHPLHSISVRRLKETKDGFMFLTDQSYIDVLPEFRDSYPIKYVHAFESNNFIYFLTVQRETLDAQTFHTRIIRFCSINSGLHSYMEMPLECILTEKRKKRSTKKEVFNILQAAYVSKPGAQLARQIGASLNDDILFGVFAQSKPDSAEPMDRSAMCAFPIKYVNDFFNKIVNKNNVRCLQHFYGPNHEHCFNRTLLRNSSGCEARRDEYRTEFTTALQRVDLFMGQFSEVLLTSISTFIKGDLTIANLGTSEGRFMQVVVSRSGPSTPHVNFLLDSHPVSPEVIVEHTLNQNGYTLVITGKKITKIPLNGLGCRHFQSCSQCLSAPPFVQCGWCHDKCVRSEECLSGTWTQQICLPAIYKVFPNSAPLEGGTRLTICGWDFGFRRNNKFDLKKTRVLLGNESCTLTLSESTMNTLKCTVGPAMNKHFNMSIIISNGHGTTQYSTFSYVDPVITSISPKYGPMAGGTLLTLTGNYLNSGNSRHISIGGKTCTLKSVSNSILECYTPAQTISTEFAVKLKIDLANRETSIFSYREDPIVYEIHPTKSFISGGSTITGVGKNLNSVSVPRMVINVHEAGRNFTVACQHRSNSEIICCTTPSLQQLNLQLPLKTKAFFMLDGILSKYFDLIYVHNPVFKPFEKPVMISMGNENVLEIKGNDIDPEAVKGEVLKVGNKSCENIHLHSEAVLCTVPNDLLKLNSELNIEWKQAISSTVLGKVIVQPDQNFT
Experimental: Peptides at 1×10¹¹ pfu/mL were incubated with 100 nM of recombinant human Met (rhMet), fused to the Fc domain of human IgG, for 1 hour at room temperature. […] Bound phage clones were eluted with a low-pH buffer (0.2 M glycine with 1 mg/mL BSA, pH 2.2), and elutants were amplified via infection of the host bacterium (E. coli ER2738).
1×10¹¹ pfu/mL were incubated with 100 nM of recombinant human Met (rhMet), fused to the Fc domain of human IgG, for 1 hour at room temperature. […] Bound phage clones were eluted with a low-pH buffer (0.2 M glycine with 1 mg/mL BSA, pH 2.2), and elutants were amplified via infection of the host bacterium (E. coli ER2738). […] Peptides specific for protein A and protein G were avoided by alternating rounds of selection between protein A-coated magnetic particles and protein G-coated magnetic particles. After five rounds of selection, DNA was recovered from 40 individual clones and sequenced using the −96 gIII primer provided with the Ph.D.™-7 kit.

ephrin B2 (EB2) on cells [3] = target: T1, ephrin B2 (EB2) on cells; assay: flow cytometry, EB2-positive HEK 293 against EB2-negative parental CHO-K1
[4] = target: Met (hepatocyte growth factor receptor) on Hep3B cells (human) (UniProt P08581); assay: flow cytometry saturation binding on cytochalasin D-treated Hep3B cells, 1 hour at 37 C; specific binding = total minus binding with saturating unlabeled HGF; apparent Kd of the multivalent particle
Met (hepatocyte growth factor receptor) on Hep3B cells (human), sequence (P08581 25-1390): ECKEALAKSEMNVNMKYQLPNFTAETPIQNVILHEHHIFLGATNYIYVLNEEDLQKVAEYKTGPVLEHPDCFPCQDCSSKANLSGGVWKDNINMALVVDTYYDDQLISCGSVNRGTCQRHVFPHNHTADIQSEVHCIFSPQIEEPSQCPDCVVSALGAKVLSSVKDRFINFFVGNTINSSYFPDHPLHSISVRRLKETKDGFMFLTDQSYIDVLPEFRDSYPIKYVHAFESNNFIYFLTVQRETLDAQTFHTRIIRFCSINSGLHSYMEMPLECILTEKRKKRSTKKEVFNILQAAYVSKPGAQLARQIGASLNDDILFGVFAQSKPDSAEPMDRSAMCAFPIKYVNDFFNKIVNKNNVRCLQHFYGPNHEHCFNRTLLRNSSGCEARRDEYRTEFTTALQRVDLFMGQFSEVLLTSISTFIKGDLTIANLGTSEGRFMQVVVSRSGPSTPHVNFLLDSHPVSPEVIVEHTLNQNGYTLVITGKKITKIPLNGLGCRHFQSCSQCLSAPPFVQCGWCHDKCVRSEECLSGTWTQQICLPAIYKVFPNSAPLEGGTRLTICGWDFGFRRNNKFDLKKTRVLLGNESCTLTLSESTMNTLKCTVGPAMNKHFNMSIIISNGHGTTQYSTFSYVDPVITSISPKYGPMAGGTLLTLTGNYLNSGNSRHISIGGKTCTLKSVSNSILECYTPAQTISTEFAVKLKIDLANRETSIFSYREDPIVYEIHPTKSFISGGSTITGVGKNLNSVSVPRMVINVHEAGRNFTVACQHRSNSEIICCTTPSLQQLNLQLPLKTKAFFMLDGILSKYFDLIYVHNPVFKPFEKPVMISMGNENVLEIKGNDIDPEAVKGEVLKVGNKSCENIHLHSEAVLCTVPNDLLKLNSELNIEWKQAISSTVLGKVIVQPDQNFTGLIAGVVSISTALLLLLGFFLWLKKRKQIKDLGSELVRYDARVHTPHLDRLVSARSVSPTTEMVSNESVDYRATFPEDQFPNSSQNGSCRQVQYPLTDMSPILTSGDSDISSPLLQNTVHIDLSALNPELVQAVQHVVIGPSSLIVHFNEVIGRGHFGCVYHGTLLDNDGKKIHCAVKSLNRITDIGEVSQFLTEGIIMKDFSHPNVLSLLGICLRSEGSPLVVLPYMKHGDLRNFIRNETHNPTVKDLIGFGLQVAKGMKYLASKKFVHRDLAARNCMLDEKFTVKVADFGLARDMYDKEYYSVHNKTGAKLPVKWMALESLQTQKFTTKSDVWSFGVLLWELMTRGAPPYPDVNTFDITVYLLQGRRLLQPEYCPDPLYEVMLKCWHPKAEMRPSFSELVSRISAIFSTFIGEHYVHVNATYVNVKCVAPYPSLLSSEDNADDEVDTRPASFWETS

T1 sequence (P52799 28-333): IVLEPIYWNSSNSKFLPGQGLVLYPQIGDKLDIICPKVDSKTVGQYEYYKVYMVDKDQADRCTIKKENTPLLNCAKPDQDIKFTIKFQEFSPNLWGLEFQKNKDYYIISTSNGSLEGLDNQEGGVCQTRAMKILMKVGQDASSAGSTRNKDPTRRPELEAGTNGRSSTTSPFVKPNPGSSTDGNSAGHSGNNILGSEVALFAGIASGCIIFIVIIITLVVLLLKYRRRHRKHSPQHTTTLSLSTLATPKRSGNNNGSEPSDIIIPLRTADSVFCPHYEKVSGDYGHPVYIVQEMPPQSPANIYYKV

Binder	binding result [2]	further results
TGAILHP (7-mer from phage display; It was selected on CHO-K1 cells expressing human ephrin B2, with counter-selection on parental CHO-K1 and on CHO-K1 expressing human ephrin B1; also called ephrin B2 targeting peptide) [TGAILHP peptide (SEQ ID NO: 18)]		binding result (ephrin B2 (EB2) on cells [1]): binds
ASVHFPP (7-mer selected from the Ph.D.-7 phage display library; also called MC40 clone) [MC40 targeting peptide ASVHFPP (SEQ ID NO: 1)]	binds	
TATFWFQ (7-mer from Ph.D.-7 phage display, tested as a phage clone) [MET binding peptide TATFWFQ (SEQ ID NO: 2)]	binds	
WPRLTNM (7-mer from Ph.D.-7 phage display, tested as a phage clone) [MET binding peptide WPRLTNM (SEQ ID NO: 5)]	binds	
TGAILHP (other, not fully specified, Multivalent display on mesoporous silica nanoparticle-supported lipid bilayers; also called MSN-SLBs modified with 0.015 wt % of TGAILHP and 10 wt % PEG-2000) [TGAILHP-targeted MSN-SLBs, low peptide valency (0.015 wt % or ~5 peptides/particle)]		fold higher affinity for HEK 293 cells than for EB2-negative cells (parental CHO-K1) (ephrin B2 (EB2) on cells [3]): 1000 fold
TSPVALL (7-mer from Ph.D.-7 phage display, tested as a phage clone) [MET binding peptide TSPVALL (SEQ ID NO: 3)]	binds	
ASVHFPPC (peptide, not shown: small tags and cut ends, also: C-terminal Cys conjugated via sulfhydryl-to-amine crosslinker to DOPE in the protocell lipid bilayer)		Kd [4]: 1.05 nM
IPLKVHP (7-mer from Ph.D.-7 phage display, tested as a phage clone) [MET binding peptide IPLKVHP (SEQ ID NO: 4)]	binds	
